According to PMC5716173:
Read-outs that look alike come from different tables or passages of the source.

How the values were obtained:
Assay in all cases: fluorescence anisotropy
[1] = target: T1, PabPolB exo- (family B DNA polymerase, exonuclease-deficient) (Pyrococcus abyssi, UniProt P0CL77 1-771, D215A)
T1 sequence: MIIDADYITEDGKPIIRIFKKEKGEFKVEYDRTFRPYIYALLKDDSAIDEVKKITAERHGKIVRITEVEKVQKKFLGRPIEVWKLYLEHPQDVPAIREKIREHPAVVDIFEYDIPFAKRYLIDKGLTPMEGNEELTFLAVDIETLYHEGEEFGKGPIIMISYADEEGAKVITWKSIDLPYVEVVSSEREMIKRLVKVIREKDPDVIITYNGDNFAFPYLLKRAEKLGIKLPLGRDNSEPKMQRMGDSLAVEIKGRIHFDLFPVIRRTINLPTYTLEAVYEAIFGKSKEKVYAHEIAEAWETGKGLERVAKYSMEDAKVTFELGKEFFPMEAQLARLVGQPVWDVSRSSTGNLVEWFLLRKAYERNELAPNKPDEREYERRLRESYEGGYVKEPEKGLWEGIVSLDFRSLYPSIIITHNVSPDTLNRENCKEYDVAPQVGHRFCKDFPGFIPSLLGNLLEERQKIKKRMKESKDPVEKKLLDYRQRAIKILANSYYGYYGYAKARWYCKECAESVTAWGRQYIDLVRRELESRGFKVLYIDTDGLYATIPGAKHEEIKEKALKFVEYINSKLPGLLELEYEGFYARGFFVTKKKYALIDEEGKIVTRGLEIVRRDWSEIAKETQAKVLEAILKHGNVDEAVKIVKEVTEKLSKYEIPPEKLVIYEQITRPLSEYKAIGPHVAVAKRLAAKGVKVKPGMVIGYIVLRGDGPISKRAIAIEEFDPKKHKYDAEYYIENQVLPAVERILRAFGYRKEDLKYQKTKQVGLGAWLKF

[2] = target: T1, PabPolB exo- (family B DNA polymerase, …); remark: listed apart in the source
[3] = target: T1, PabPolB exo- (family B DNA polymerase, …); remark: listed apart in the source
[4] = target: T1, PabPolB exo- (family B DNA polymerase, …); remark: listed apart in the source
[5] = target: T1, PabPolB exo- (family B DNA polymerase, …); remark: listed apart in the source
[6] = target: T1, PabPolB exo- (family B DNA polymerase, …); remark: listed apart in the source

B1: HEX-labeled primer/template 18/25 (dsDNA)
DNA 1: CGCCGGGCCGAGCCGTGC
DNA 2: AGGTCGTGCACGGCTCGGCCCGGCG
Which Kd [1] does the source give for B1 here?
Its Kd is 38 ± 6 nM.

What about the Kd [2] of the same binder?
The Kd was 43 ± 6 nM.

And the Kd [3]?
Its Kd is 20 ± 6 nM.

And the Kd [4]?
The Kd was 7 ± 1 nM.

And the Kd [5]?
Its Kd is 17 ± 2 nM.

And the Kd [6]?
Its Kd is 25 ± 3 nM.
